The experiment addresses T1, Flag-TGF-β1WT (UniProt P04202 30-390).
T1 construct: TGF-β1 expressed from PCMV6-TGF-β1-Flag, constructed from the Origene plasmid PCMV6-TGF-β1-Myc-Flag (MR227339); Origene MR clones are mouse ORF clones as far as I recall; the printed sites T282 and K315 fit the precursor numbering of mouse and human TGF-β1; In cells the protein may be phosphorylated (T282) and ubiquitinated (K315); also called PCMV6-TGF-β1-Flag; source: HEK293T, transfected, in …
The experiment in a line: pull-down; about 1 µg His-CHIP bound to His beads mixed with 1 µg Flag-TGF-β1WT or Flag-TGF-β1T282A, 4 °C overnight, washed three times with cell lysis buffer, immunoblot. The settings on record: both partners purified.

T1 sequence (P04202 30-390): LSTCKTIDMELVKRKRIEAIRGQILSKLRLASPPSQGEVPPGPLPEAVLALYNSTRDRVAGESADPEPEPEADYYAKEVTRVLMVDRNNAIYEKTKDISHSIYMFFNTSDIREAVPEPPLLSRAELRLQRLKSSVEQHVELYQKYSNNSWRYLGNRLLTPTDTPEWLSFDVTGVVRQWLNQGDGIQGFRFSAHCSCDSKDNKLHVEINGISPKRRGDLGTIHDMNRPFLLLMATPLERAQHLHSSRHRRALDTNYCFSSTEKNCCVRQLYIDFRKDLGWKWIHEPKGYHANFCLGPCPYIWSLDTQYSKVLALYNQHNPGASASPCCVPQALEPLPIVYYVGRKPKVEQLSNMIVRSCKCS

B1: His-CHIP (enzyme, UniProt Q9WUD1 1-304, looked up)
chain: MKGKEEKEGGARLGTGGGGSPDKSPSAQELKEQGNRLFVGRKYPEAAACYGRAITRNPLVAVYYTNRALCYLKMQQPEQALADCRRALELDGQSVKAHFFLGQCQLEMESYDEAIANLQRAYSLAKEQRLNFGDDIPSALRIAKKKRWNSIEERRIHQESELHSYLTRLIAAERERELEECQRNHEGHEDDGHIRAQQACIEAKHDKYMADMDELFSQVDEKRKKRDIPDYLCGKISFELMREPCITPSGITYDRKDIEEHLQRVGHFDPVTRSPLTQEQLIPNLAMKEVIDAFISENGWVEDY
notes: also called PCMV6-CHIP-His
Regarding B1, the binding result was “binds”.

The record behind these values is PMC9198048, “Ursodeoxycholic acid reduces antitumor immunosuppression by inducing CHIP-mediated TGF-β degradation” (Nature Communications, 2022).
